Data on nine molecules can be found in patent US6645738B1, “DNA molecules encoding the melanocortin 5 receptor protein from rhesus monkey” (Merck & Co., Inc., priority 1998, dated 2003).

For assay [1], the target named is rhesus monkey (Macaca mulatta) melanocortin-5 receptor (rhesus monkey (Macaca mulatta)). Nature of the assay: displacement of 0.1 nM 125I-NDP-α-MSH from CHO cells stably expressing rhMC-5R.
For assay [2], the target named is T1, human melanocortin 5 receptor (human, UniProt P33032 1-325). Nature of the assay: cell-based or functional assay.
The target in assay [3] is rhesus monkey (Macaca mulatta) melanocortin-5 receptor (rhesus monkey (Macaca mulatta)). Nature of the assay: cell-based or functional assay.
Assay [4] has as its target T2, human MC-5R (Homo sapiens, UniProt P33032).
T2 construct: expressed in transfected cells
It is filed as cell-based. Here is the method: (§1) To determine the functional activation of receptors, stably transfected CHO cells were washed once with PBS without Ca^++/Mg^++, dissociated by non-enzymatic dissociation medium (Specialty Media, Inc.) at 37° C. for 10 min. Dissociated cells were resuspended in EBSS buffer containing 25 mM Hepes, 5 mM MgCl2, 0.1% BSA and 50 mM IBMX and incubated with agonist at room temperature for 45 min. The agonist activation was terminated by boiling for 4 min.
(§2) Single clones were used in all pharmacological studies as described above.
(§3) A cDNA encoding human MC-5R subcloned into the pIRES1neo expression vector (Clontech) and stably transfected into CHO cells was used as a reference for the pharmacological properties of the rhesus MC-5R. Single clones were used in all pharmacological studies as described above. The functional properties of rhMC-5R were determined by heterologous expression in CHO cells.

Assay [5] deals with rhesus MC-5R. Type of assay: cell-based, rhesus monkey (Macaca mulatta). The settings on record: for EC50: read-out: EC50, nM rhMC-5R. The procedure:
as §1, §3

The test system of assay [6] is rhesus MC-5R. Type of assay: binding, rhesus monkey (Macaca mulatta). The note with it: read-out: IC50, nM rhMC-5R. The procedure: (§4) The receptor plasmid was transfected into CHO dhfr- cells using lipofectamin (GIBCO). Transfected cells were selected by G418 for at least 2-3 weeks before binding and functional assays were performed. […] After incubation at room temperature for 3 hours, wells were washed 3 times by PBS, lysed in 0.5 ml of 0.05% SDS and counted by a gamma counter.
as §3

Assay [7] addresses T1, human melanocortin 5 receptor. Nature of the assay: displacement of 0.1 nM 125I-NDP-α-MSH from CHO cells stably expressing hMC-5R.
Assay [8] addresses T2, human MC-5R. It is filed as binding. The procedure: as §4, §2, §3
Assay [9] deals with T3, rhesus monkey (Macaca mulatta) melanocortin-5 receptor (rhesus monkey (Macaca mulatta), UniProt P33032 1-325 (human entry)).
T3 construct: Full-length open reading frame (325 amino acids) in pcDNA3.neo, stably expressed in CHO dhfr- cells; assays on whole cells; also called rhMC-5R; rhesus MC-5R
T3 chain: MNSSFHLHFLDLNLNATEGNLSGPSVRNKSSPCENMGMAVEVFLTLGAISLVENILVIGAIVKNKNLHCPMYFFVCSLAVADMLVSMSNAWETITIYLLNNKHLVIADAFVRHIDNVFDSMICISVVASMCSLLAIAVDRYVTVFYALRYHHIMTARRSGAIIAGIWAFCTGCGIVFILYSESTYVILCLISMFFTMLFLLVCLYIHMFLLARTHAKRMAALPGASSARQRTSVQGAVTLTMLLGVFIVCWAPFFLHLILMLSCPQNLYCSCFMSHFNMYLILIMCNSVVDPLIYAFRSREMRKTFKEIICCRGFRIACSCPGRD
Nature of the assay: displacement of 0.1 nM 125I-NDP-α-MSH from CHO cells stably expressing rhMC-5R. The procedure:
The receptor plasmid was transfected into CHO dhfr-cells using lipofectamin (GIBCO). Transfected cells were selected by G418 for at least 2–3 weeks before binding and functional assays were performed. […] After incubation at room temperature for 3 hours, wells were washed 3 times by PBS, lysed in 0.5 ml of 0.05% SDS and counted by a gamma counter.

The target in assay [10] is T3, rhesus monkey (Macaca mulatta) …. Nature of the assay: cell-based or functional assay.

Where two headings read alike, the source gives them in different places.

T2 sequence (P33032 whole entry): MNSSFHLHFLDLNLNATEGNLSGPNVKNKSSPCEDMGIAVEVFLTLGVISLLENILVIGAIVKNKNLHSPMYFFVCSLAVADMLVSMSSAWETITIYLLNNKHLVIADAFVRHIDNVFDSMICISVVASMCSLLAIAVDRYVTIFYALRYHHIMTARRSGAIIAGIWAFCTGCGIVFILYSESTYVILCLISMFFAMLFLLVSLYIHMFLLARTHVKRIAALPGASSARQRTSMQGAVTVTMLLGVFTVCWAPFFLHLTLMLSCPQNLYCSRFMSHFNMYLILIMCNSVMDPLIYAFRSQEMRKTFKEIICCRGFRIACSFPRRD

With MT-II (peptide), the concentration for half-maximal inhibition (IC50) (as a rule, the concentration needed to halve the response being measured) in assay [1] came out at 5 nM. In addition, in assay [2], the EC50, nM (cAMP synthesis in CHO cells) came to 0.8 nM and the Maximal response (%) was 85%. Also, in [3], the EC50, nM (cAMP synthesis in CHO cells) is 0.02 nM and the Maximal response (%) was determined as 100%.

Consider MT-II [MTII], for which, on human MC-5R [4], the “Agonist character at human MC-5R (in words)” value is on record as “partial agonists” and the “Maximal response (%) hMC-5R” value stood at 85%. Besides, in the assay on rhesus MC-5R [5], the “Maximal response (%) rhMC-5R” value was found to be 100% and the 50% effective concentration (EC50) – broadly, the concentration giving half of the maximal effect – was 0.02 ± 0.01 nM. Besides, the IC50 with rhesus MC-5R [6] came out at 5 ± 0.2 nM.

For NDP-α-MSH, in the assay on rhesus MC-5R [5], the “Maximal response (%) rhMC-5R” value is 100% and the EC50 stood at 0.02 ± 0.01 nM. Further, in the assay on rhesus MC-5R [6], the IC50 worked out at 0.2 ± 0.1 nM.

As to NDP-α-MSH (peptide), the IC50 was found to be 0.5 nM in [7] and 0.2 nM in assay [1]. Moreover, the EC50, nM (cAMP synthesis in CHO cells) in assay [2] came to 0.3 nM; in assay [3], 0.02 nM. The Maximal response (%) in assay [2] and in [3] was 100% throughout.

As to Shu-9119 (peptide), the figures for the IC50 in assay [7] and in assay [1] were 0.4 nM and 0.02 nM, respectively. Further, the EC50, nM (cAMP synthesis in CHO cells) in assay [2] amounted to 0.03 nM; in [3], 0.007 nM. Further, the Maximal response (%) in [2] and in assay [3] was 100% in each case.

Consider human ACTH(1-24) [ACTH1-24], for which the “Maximal response (%) hMC-5R” value at human MC-5R [4] (cAMP response, CHO cells) was found to be 100%. Besides, the “Maximal response (%) rhMC-5R” value with rhesus MC-5R [5] (cAMP response, CHO cells) turned out to be 100%. Besides, the EC50 in the assay with rhesus MC-5R [5] (intracellular cAMP, CHO cells, agonist 45 min at room temperature) came out at 0.2 ± 0.1 nM. Moreover, the IC50 in the assay with rhesus MC-5R [6] came out at 15 ± 1 nM.

Regarding α-MSH, the “Apparent binding affinity for the human MC-5R (in words)” value on human MC-5R [8] was “very low apparent binding affinity”. In the assay with rhesus MC-5R [5], the “Maximal response (%) rhMC-5R” value is recorded as 100% and the EC50 is 0.2 ± 0.1 nM.

Turning to γ2-MSH, on human MC-5R [4], the “Agonist character at human MC-5R (in words)” value is “partial agonists” and the “Maximal response (%) hMC-5R” value came out at 80%. In the assay with rhesus MC-5R [5], the “Maximal response (%) rhMC-5R” value was 100%.

The molecule SYSMEHFRWGKPVGKKRRPVKVYP (peptide, UniProt P01189 138-161, looked up, range 138-161) [human ACTH(1-24)] registered an IC50 in [9] of 15 nM. For the same molecule, in assay [10], the “EC50, nM (cAMP synthesis in CHO cells)” value stood at 0.2 nM and the “Maximal response (%)” value was 100%. For the same molecule, in [2], the “EC50, nM (cAMP synthesis in CHO cells)” value came out at 5 nM and the “Maximal response (%)” value turned out to be 100%.
